According to publication PMC4892741, “Two shikimate dehydrogenases, VvSDH3 and VvSDH4, are involved in gallic acid biosynthesis in grapevine” (Journal of Experimental Botany, 2016):

B1: VvSDH1 (Vitis vinifera) (protein)
chain: MESGGMSKNSTLICVPIMGETIEKMVVDMSKAKTSGADLVEVRLDTLKRFNPRQDLEVLIRKCPLPTLFTYRPKWEGGQYEGDENSRRDALRLAMELGADYVDIELKVAHEFINSIHGRKPEKFKVIVSSHNYQNTPSVEDLGNLVVSIQATGADIVKIATTALEITDVARIFQITVHSQVPVIGLVMGERGLISRILCPKFSGYLTFGSLEPGIVSAPGQPTIKDLLNLYNFRQLGPDTKVFGVIGKPVSHSKSPHLYNEAFKSVGFNGVYVHLLVDDIAKFFHTYSAADFAGFSCTIPHKEAALKCCDEVSPVAKSIGAVNCIIRRPSDGKLFGYNTDYVGAISAIEDGLRDLHKISSTSGSPLAGKLFVVIGAGGAGKALAYGAKEKGARVVIANRTYARARELADAVGGDALSLADLNNFHPENGMILANTTSIGMQPKVDETPISKHALKYYSLVFDAIYTPKITRLLREAQESGATIVTGLEMFIGQAYEQFERFTGLPAPKELFKQFISNLQ
notes: E. coli BL21(DE3); GST tag removed after purification
B2: VvSDH3 (Vitis vinifera) (protein)
chain: MGSLPFTVSDLQTSVSGVRSNPTLLCTPLMGTTVEQMLTEMRKAKEIGADIVEIRLDCLRNFSPAQDLQILIKQSPLPTLVTYRPIWEGGQYEGDENKRQDALRLAMELGASYIDVELEVAHEFNNSIYGKKPQNFKVIVSSHNFHNTPSTEAIGNLVARIQASGADIVKIATTALDITDVARVLQVTVHSQVPTIAIVMGERGLISRLLSPKFGGYLTYGALEAGAISAPGQPTAKDLLDLYNFRLVKPDTKVYGIIGKPVGHSKSPLLFNAAFKKVGLNAVYVHLLVDDVEKFFNTYSAPDFISGCSCTIPHKEVAIKCMDTIDPIARKIGAINNIVRKPDGKLTAFNTDYIGAIEAIEDGLRESNGSSPAVGSPLAGKLFVVLGAGGAGKSLAYGAKEKGARVVVANRTFERAKDLADKVGGQALTLAEIENFHPEEGMILANTTSVGMKPKINDTPIPKHALKHYSLVFDAIYTPKDTRLLREAKESGKIIVYGTEMLIRQGFEQYKNFTGLPAPEELFRELMSKHA
notes: as for B1
B3: VvSDH4 (Vitis vinifera) (protein)
chain: GARRNSTLICVPIMADSVDQMLGQIRKAKEVGGDLVEIRLDYLKNFSPRQDLQFLVKQSPLPTLVTYRPTWEGGQYDGDEGKRLDALRLAIELGADYIDVELQVAPEFINSIQGKTSGKVKIIVSSHNYQNTPSAEELGNLVARIQATGADIVKIATTALDITDCARIFQVLAHSQVPTIGIAMAERGLISRILSAKFGSYLTFGSLEAGVVSAPGQPTVKDLLDLYNFRQIGPDTKVHGVIGKPIGHSKSPHLYNSAFKSVGFNGIYLPLLVDSVKNFLATYSSPDFVGYSYTIPHKEDGLRCCDEIDPIAQAIGAISCMIRRPADGKLMGYNVDYLGAIAAIEEGLRASNGTTSVGSPLAGKLFVVIGAGGAGKALAYGGKEKGARVVVANRTFEKAKELASKVGGEAMTLAELENFHPEDGMILANTTSVGMKPNIDNTPLSKKALSRYSLVFDAIYTPKLTRLLREAQESGAIIVYGTEMFINQAFVQFERFTGLPAPKELIREVLVRNT
notes: partial cDNA lacking the first 17 aa (putative transit peptide); E. coli BL21(DE3); GST tag removed

Experiments:
Assay in all cases: purified protein
Assay type in all cases: biochemical, Vitis vinifera
purified protein [1] = substrate: O=C(O)C1=CC(=O)[C@@H](O)[C@H](O)C1; conditions: 0.4 mM NADPH, pH 7, 100 mM Bis-Tris Propane HCl, 30 °C, 3-DHS reduction, pH 7.0
purified protein [2] = substrate: NC(=O)c1ccc[n+]([C@@H]2O[C@H](COP(=O)(O)OP(=O)(O)OC[C@H]3O[C@@H](n4cnc5c(N)ncnc54)[C@H](OP(=O)(O)O)[C@@H]3O)[C@@H](O)[C@H]2O)c1; conditions: 4 mM shikimate, pH 9, 100 mM Bis-Tris Propane HCl, 30 °C
purified protein [3] = substrate: O=C(O)C1=C[C@@H](O)[C@@H](O)[C@H](O)C1; conditions: 2 mM NADP+, pH 9, 100 mM Bis-Tris Propane HCl, 30 °C

Row | Protein | Km (purified protein [1]) | Vmax (purified protein [1]) | kcat (purified protein [1]) | kcat/Km (purified protein [1]) | Km (purified protein [2]; pH 9.0, varied: cofactor) | Vmax (purified protein [2]; pH 9.0, varied: cofactor) | kcat (purified protein [2]; pH 9.0, varied: cofactor) | kcat/Km (purified protein [2]; pH 9.0, varied: cofactor) | Km (purified protein [3]; pH 9.0) | Vmax (purified protein [3]; pH 9.0) | kcat (purified protein [3]; pH 9.0) | kcat/Km (purified protein [3]; pH 9.0) | Km (purified protein [2]; varied: cofactor) | Vmax (purified protein [2]; varied: cofactor) | kcat (purified protein [2]; varied: cofactor) | kcat/Km (purified protein [2]; varied: cofactor) | Km (purified protein [3]) | Vmax (purified protein [3]) | kcat (purified protein [3]) | kcat/Km (purified protein [3])
1 | B1 | 156.9 ± 31.3 µM | 102 µmol/min/mg | 95.8 ± 10.2 s⁻¹ | 611000 M⁻¹ s⁻¹ | 214.7 ± 56.4 µM | 254 µmol/min/mg | 239 ± 26.3 s⁻¹ | 1.11e+06 M⁻¹ s⁻¹ | 90 ± 16 µM | 100 µmol/min/mg | 94.5 ± 7.2 s⁻¹ | 1.05e+06 M⁻¹ s⁻¹ |  |  |  |  |  |  |  | 
2 | B2 | 46.3 ± 18.2 µM | 9 µmol/min/mg | 8.62 ± 0.93 s⁻¹ | 186000 M⁻¹ s⁻¹ | 38.4 ± 11.9 µM | 27 µmol/min/mg | 26.1 ± 2.68 s⁻¹ | 680000 M⁻¹ s⁻¹ | 27.3 ± 10.4 µM | 5.4 µmol/min/mg | 5.16 ± 0.56 s⁻¹ | 189000 M⁻¹ s⁻¹ |  |  |  |  |  |  |  | 
3 | B3 |  |  |  |  |  |  |  |  |  |  |  |  | 53.8 ± 5.8 µM | 30 µmol/min/mg | 28.9 ± 1.06 s⁻¹ | 537000 M⁻¹ s⁻¹ | 146.8 ± 60 µM | 27.6 µmol/min/mg | 26.1 ± 4.97 s⁻¹ | 178000 M⁻¹ s⁻¹
